The source of these data is the DeepSol protein solubility set.

This data set can be described thus: soluble on expression in E. coli; label from the status in PepcDB or PDB records.
With “MLALFYNKKLFEQAGLTKPPETWDELLEYAKIITEKTGKPGLAIYLGGFNRYVPVAVSNGAPKPWFEKPEDASWFDNPVVRETLTWYINLYRKGKVEREKKGLPPYVVAPEDVGAGWLGDAFGQQKVAMVISGNWMIPFLADQFPNFKYGEDWDIAPLPAGKNGRVTMVYTVILGINSKTKHPKEAWKFVEFILGPRGQKELVVKAGQTLPSMKGFENDP”, the “soluble on expression in E. coli” value is recorded as “not soluble”.
With “MLAMKLGIVGLGGWVTGAHIPALTDLGIKVDYCADIDEKRVKDLSQKTGCKGYLDYKEMLRNENPDLVLVAVPHSLHAIIALDAINNDANVYVEKPMATSFQEALTLVEASRKRNKILVVGHENRFNPAMLIAKKLIRGGEVGKIYHMRGFYIRQRGIPTSPTFIKKDLAKGGAVFDIGTHIIDLLLFLSDFPTPKSVTGKTYNAFSEDKTKFSAYPSPNLPNFKVEVEDFGSAFLKLGDEISAYVEVSWASYIKENKMEVVILGDNGGIHIDNGVLNFMRNIEDELFISSPLTQQKGSVYREVWRTVMESISKGFPEYPLCSAEQGAIGVAILESIYKSALEGREVKIDIPQWFLKQFQPRALEHHHHHH”, the “soluble on expression in E. coli” value is listed as “not soluble”.
In the case of “MLCAQTFSEEDFRIRGYVDIHRLDTTIRLALIYSTTDNFVGEDMYGDFDKAYFEKGFAERIHQAQRLLRKEHPDYSLLIYDASRPISIQRRMYTLVKGTSKAVYVANGNRGGKHNYGVAVDLTIVDRDGKPLDMGTPVDHFGRAAHVGQEERLAADGLISREAVRNRRLLRRIMKSVGLVPYRREWWHYELPESMSHTRSHYRLLDF”, the “soluble on expression in E. coli” value was “not soluble”.
For “MLCRNTARTGCKFFRLYHSNPIEHVKPIHIKPLTYGKESPQYKVLSLALQKFVPEHGFSERSIVESLNELGYPSSMISSIGAPNSPSFFHSSTAVMELIKFQLVDKRYRLTEGINPDVTPQYKLPSLEHLLLKRLEMDKPIGGHLSELMSQLAIPSAFLFETAIPELHRLSDDMIYFSNEKDHHDSAWYAKRLAVSSTYIGSKLFMAQDKSHNYKETFTFAKDKLHRVMRLGEYYNNTEEFAWYTLMSTVNLIKSQLVRG”, the “soluble on expression in E. coli” value is given as “not soluble”.
Take “MLDPRLSVAPMVDRTDRHFRFLVRQVSLGVRLYTEMTVDQAVLRGNRERLLAFRPEEHPIALQLAGSDPKSLAEAARIGEAFGYDEINLNLGCPSEKAQEGGYGACLLLDLARVREILKAMGEAVRVPVTVKMRLGLEGKETYRGLAQSVEAMAEAGVKVFVVHARSALLALSTKANREIPPLRHDWVHRLKGDFPQLTFVTNGGIRSLEEALFHLKRVDGVMLGRAVYEDPFVLEEADRRVFGLPRRPSRLEVARRMRAYLEEEVLKGTPPWAVLRHMLNLFRGRPKGRLWRRLLSEGRSLQALDRALRLMEEEVGEEGEKEKPGPRGQREAAPGPAREGV”: the “soluble on expression in E. coli” value is listed as “soluble”.
On to “MLEDPGGRPRVYVDVREERSPVPSILESLGVQVIPKQLPMGDYLVSDSIIVERKTSSDFAKSLFDGRLFEQASRLAEHYETVFIIVEGPPVPRRYRGRERSLYAAMAALQLDYGIRLMNTMDPKGTALVIESLARLSTREGGQRIVIHKKPRLSDVREWQLYILQSFPGIGRRTAERILERFGSLERFFTASKAEISKVEGIGEKRAEEIKKILMTPYK”, for which the “soluble on expression in E. coli” value was “soluble”.
On to “MLEQPIGVIDSGVGGLTVAKEIMRQLPKENIIYVGDTKRCPYGPRPEEEVLQYTWELTNYLLENHHIKMLVIACNTATAIALDDIQRSVGIPVVGVIQPGARAAIKVTDNQHIGVIGTENTIKSNAYEEALLALNPDLKVENLACPLLVPFVESGKFLDQTADEIVKTSLYPLKDTSIDSLILGCTHYPILKEAIQRYMGEHVNIISSGDETAREVSTILSYKGLLNQSPIAPDHQFLTTGARDQFAKIADDWFGHEVGHVECISLQEPIKR”, for which the “soluble on expression in E. coli” value is given as “soluble”.
With “MLFIAFAPFGAFALEANSKNDGYSLDDIKYYKIFENEDIPKIMYALRQGDFEIIAELKNEWEIEEEDVSFEYTTSKNPLGELIRDNLYELGQKYEVFEDESDFVSKMNVWATAFTKSMMKKSSEQKDKLIVQTVNALDNLDETLNLFSERLREWYSLYFPEMDNIVKKHDIYVSLVSEYGDREEYTRTKLKKTMPSNVARTISLAAKESMGADVSEFDLKIMKNLADEIKSMYEYRESLQEYLETSMNEIAPNLTKVAGASLGARLISLAGGIERLLRLPASTIQVIGAEKALFAHLRERALPPKHGVIFQHPLIQGSPWWIHGKIARAISCKISIAIRADAFGNDISDMLIEDMNKKVAEIKEKFPEPTRKRRPRPDTRSFGNKGGQDRDRRSQGDRKPSGNRGDSKKGGKPFGKKPAGKDDRRDNRKGDRKPFGGKPKNSGNQPPKERSGEKRRDSTKKVKAERKVIGKTSSQNLEHHHHHH”, the “soluble on expression in E. coli” value is “soluble”.
In the case of “MLFIIKYYEPKNLYEHILFILKHLCRSKSMILNPQKLSVDFGNGITATEPIIPRRYTLTHSDITAKLFLNIGLTYAYNKMTTMRDEVLGEWVKKSQDYSYQVFLHVDGRLGPKTTAIRNKIFRRELPLALEAIRYGDKRFFNAHPYLDNAPITVFFISTNPNFNKIENWGTFSDYNIESYYRNYKNVYLLDRKVGDVTGDDIPDTVSLYGEKEAPSEIFADDITVIITDGSTGNTTTITPEFNSGYNPTIFLGDFTKNRVYDIKISIDSGGSGGYGFFYIYSFMENTFREIFNFDAYNKEYKYKVDYDDLYKVNVGAITLNKLFILDISYKGYDVLSQYYYENGKLIKPVDGDVLALGALVPIVSNELLDFYNLLAFQRIIGTYNADTLGYVQNLLSWDGKNFTPSSTFVNISGSSLISPYLEHHHHHH”, the “soluble on expression in E. coli” value is “not soluble”.
Turning to “MLGGSLYQVYAIKEAVKMGYYVITCDYLPNNPGHQYAHEYYNVSTTDKEAVYELAKRLQVDGVVAYASDPAAPTAAYVCEKLGLPTSPYTSVEILSQKDLFRRYLAEHNFNVPKYVGCSSYTEALEQIKNLTLPVMIKPVDSSGSKGINKLTNVDQLKDFIEDALSYSREKRIIIEEFIEKDGYQISGDAFSVDGILKFHCFGNEYYSSSVVKDFAPLGECWPFQMKPEIITELEKDIQRLISELKMGTTAYNVEAILGKNGKLYILELGARSGGSLIPQITELATGVNMVKYVIKAALGEDCSEIEMSPARGYWSNYMLHSKQTGRFKEISFDENFAKNNLVDCVTELKSGDNVHAFRDAGDALGTLILKYSSKEEMFNVIENMDQFVHIIID”, the “soluble on expression in E. coli” value is reported as “not soluble”.
Then “MLIELLISITVLASILVSCKKEKNEAAKLKPRGFDRKSSGAPAPAGANLVNKSGGSGGGSGGSGDANRLLKREIKEVKMEERSADDNETINDVKSNWGTV”, with “not soluble”.
Turning to “MLIKIAPSILSADFSKLGEEVLRIEKAGADLVHIDVMDGHFVPNITIGPPVVKSLKKVSKLPFDVHLMIENPDMYIESFADAGADIISVHAEACRHLHRTIQKIKQLGIKAAVALNPATPLCAVEWVMEDVDMILLMTVNPGFGGQKYINGVTRKIEELERIVESRGLNIDIEVDGGIDTETVQYVTKAGANVIVSGSTIFAAEDTAKIIQELRMNSYRK”, the “soluble on expression in E. coli” value was “not soluble”.
Take “MLIKVKTLTGKEIEIDIEPTDTIDRIKERVEEKEGIPPVQQRLIYAGKQLADDKTAKDYNIEGGSVLHLVLALRGG”: the “soluble on expression in E. coli” value is recorded as “soluble”.
Take “MLILSFLCPAFLNAQIVTDERMFSFEEPQLPACITGVQSQLGISGAHYKDGKHSLEWTFEPNGRLELRKDLKFEKKDPTGKDLYLSAFIVWIYNEQPQDAAIEFEFLKDGRKCASFPFGINFKGWRAAWVCYERDMQGTPEEGMNELRIVAPDAKGRLFIDHLITATKVDARQQTADLQVPFVNAGTTNHWLVLYKHSLLKPDIELTPVSDKQRQEMKLLEKRFRDMIYTKGKVTEKEAETIRKKYDLYQITYKDGQVSGVPVFMVRASEAYERMIPDWDKDMLTKMGIEMRAYFDLMKRIAVAYNNSEAGSPIRKEMRRKFLAMYDHITDQGVAYGSCWGNIHHYGYSVRGLYPAYFLMKDVLREEGKLLEAERTLRWYAITNEVYPKPEGNGIDMDSFNTQTTGRIASILMMEDTPEKLQYLKSFSRWIDYGCRPAPGLAGSFKVDGGAFHHRNNYPAYAVGGLDGATNMIYLFSRTSLAVSELAHRTVKDVLLAMRFYCNKLNFPLSMSGRHPDGKGKLVPMHYAIMAIAGTPDGKGDFDKEMASAYLRLVSSDSSSAEQAPEYMPKVSNAQERKIAKRLVENGFRAEPDPQGNLSLGYGCVSVQRRENWSAVARGHSRYLWAAEHYLGHNLYGRYLAHGSLQILTAPPGQTVTPTTSGWQQEGFDWNRIPGVTSIHLPLDLLKANVLNVDTFSGMEEMLYSDEAFAGGLSQGKMNGNFGMKLHEHDKYNGTHRARKSFHFIDGMIVCLGSDIENTNMDYPTETTIFQLAVTDKAAHDYWKNNAGEGKVWMDHLGTGYYVPVAARFEKNFPQYSRMQDTGKETKGDWVSLIIDHGKAPKAGSYEYAILPGTDRKTMTAFAKKPAYSVLQQDRNAHILESPSDRITSYVLFETPQSLLPGGLLQRTDTSCLVMVRKESADKVLLTVAQPDLALYRGPSDEAFDKDGKRMERSIYSRPWIDNESGEIPVTVTLKGRWKVVETPYCKVVSEDKKQTVLRFLCKDGASYEVELEKLEHHHHHH”: the “soluble on expression in E. coli” value is given as “soluble”.
Turning to “MLKGKTIYVRPLEVTDAEENLGLQSENRDFFEQFSMIRADDYYTVEGQRKRITEYQERLEKDEEYHFGIFTASDDRLIGTVSLFQIIRGALQTAFIGYFLDKAHNGKGIMTEAVRLVVDYAFHELKLHRIEAGVMPRNLGSMRVLEKAGFHKEGIARKNVKINGVWEDHQVLAILNPDDEQLEHHHHHH”, the “soluble on expression in E. coli” value is “not soluble”.
Then “MLKIGIIPNEDKDEELKYTRILVDSIKKCGGTAIVCDDIALKLGDKESNINEDNIVDMSDVMVCLGGDGTFLKAARMTVVKGKPLLGVNLGKLGFLADVDKNDIENAVKRLVEDKFTVDERMMLDTVIVRDGKIIAEDIVLNDVVISRGAISRILHLKTYINDAFMDLYPGDGLIISTPTGSTAYSLSAGGPLVEPDVDLIICTPICPHLLYSRSFITTADRVIKVVVAESSSHEAMVTVDGQNGYEVRGGDVIITKKSRIRMPMVRLNGKNFFDVLRGKIYDRGESMK”, with “not soluble”.
“MLKIGPYEFSSRLLLGTGKYPSLDVQKEAVEASGAEILTFAVRRMNIFSPEQPNFLEQLDLSKYKLLPNTAGAKTAEEAVRIARLAKASGLCDMIKVEVIGCDKTLLPDPIETLKAAEMLLEEGFIVLPYTSDDVVLAKRLEELGCHAIMPGASPIGSGQGIINPLNLSFIIEQANVPVIVDAGIGGPADAALAMELGADGVLLNTAVSGAADPVKMAKAMKLAVEAGRLGYEAGRIPKKRYASASSPTEGMSVV”: the “soluble on expression in E. coli” value is “not soluble”.
For the sequence “MLKKYTRYSNFRLISQIQFQRHIDIFHAITYDNIDGLVAAFVRNEPFDIKDKNGNTPLHLAAKLNRRLLCRAVCVYAAGLDLWNSKNNDGKTPIEMTDDANIKRDLQSISTSRSSVDSHHMAYNKLLIEKKINENEEQNQNQKVILSLDGGGLRVVLQCAILLAVERELGEPLRNRIHWIAGTSCGGIMASSIGVGIDLADALRLYIIIRKRIFGGNNQKFPKHSALGIETCLQEVMGSKTLMSKCTAHRLVVTTAKVTLAPPQLVLFRSYAPRIDSKEFEQLGYFNPNKILLWKAIRCTTAAPTYFPSFNGMADGALFCNNPCIMVMTEFAKLKKIENYRGKNNTDEIGCVISVGTGIEPSYPINGIDINLTSGLTGITGNWREIIENTKNLITVFLYQCTSSHNVHVGQSREWCHSMQVPFFRFSPHLAAPFELDNCKIEDITNAMFDNEVYIRTEIKQHISDLCRLLKSMPRNTEPCNYSKITGGKGSKVGSPKSDKK”, the “soluble on expression in E. coli” value is reported as “not soluble”.
